Drawing on the Human Domainome abundance scans (Beltran et al. 2025), this text covers abundance fitness for 167 variants.

± gives the uncertainty stated by the source.

The labels stand for the following.
B1: Apoptosis-associated speck-like protein containing a CARD, residues 114 to 194; numbered along this chain, Q9ULZ3 (parent)
chain: FIDQHRAALIARVTNVEWLLDALYGKVLTDEQYQAVRAEPTNPSKMRKLFSFTPAWNWTCKDLLLQALRESQSYLVEDLER

Variants of B1 are the subject of this data set. In words: abundance fitness (aPCA) (normalised: wild type 0, dead -1); higher = more abundant; growth selection in yeast, the domain comes from the species named. The following applies: Homo sapiens.
As for K61N, the abundance fitness is -0.52 ± 0.2.

On to K61G, for which the abundance fitness was -0.601 ± 0.064.

Consider N15L, for which the abundance fitness is -0.796 ± 0.15.

On to N15E, for which the abundance fitness was -0.188 ± 0.064.

In the case of N15W, the abundance fitness was -0.605 ± 0.17.

N15P: the abundance fitness is -0.806 ± 0.14.

On to N15M, for which the abundance fitness is -0.847 ± 0.17.

Turning to L63F, the abundance fitness was -0.381 ± 0.073.

As to L63H, the abundance fitness is -0.425 ± 0.16.

Consider V13L, for which the abundance fitness is -0.632 ± 0.076.

Take V13H: the abundance fitness is -0.878 ± 0.26.

Turning to K48H, the abundance fitness is -0.655 ± 0.34.

Take D30N: the abundance fitness was -0.325 ± 0.084.

Consider D30S, for which the abundance fitness is -0.249 ± 0.058.

Turning to L19Y, the abundance fitness came out at 0.243 ± 0.21.

Consider L19P, for which the abundance fitness was -0.787 ± 0.12.

For the variant L19R, the abundance fitness was -0.906 ± 0.12.

As for L19F, the abundance fitness was -0.781 ± 0.2.

On to L19V, for which the abundance fitness was -0.051 ± 0.05.

Turning to E39Y, the abundance fitness was -0.49 ± 0.18.

As for E39A, the abundance fitness is -0.474 ± 0.094.

As to E31Y, the abundance fitness is -0.477 ± 0.081.

On to E31N, for which the abundance fitness is -0.327 ± 0.22.

Turning to E31Q, the abundance fitness was -0.38 ± 0.12.

Consider E31M, for which the abundance fitness is -0.693 ± 0.13.

Regarding E31S, the abundance fitness was -0.263 ± 0.053.

On to W56A, for which the abundance fitness is -0.899 ± 0.13.

Consider S73N, for which the abundance fitness is -0.022 ± 0.15.

As to S73H, the abundance fitness was -0.144 ± 0.16.

As to Y24I, the abundance fitness was -0.395 ± 0.12.

With Y24D, the abundance fitness is -0.157 ± 0.14.

As to Y24P, the abundance fitness is -0.598 ± 0.062.

Consider Y24T, for which the abundance fitness is -0.654 ± 0.088.

Consider A38C, for which the abundance fitness was -0.297 ± 0.087.

On to A38Q, for which the abundance fitness was -0.179 ± 0.078.

As to A38Y, the abundance fitness is -1.08 ± 0.48.

For A38N, the abundance fitness is -0.308 ± 0.21.

A22H: the abundance fitness was -0.116 ± 0.22.

With A22V, the abundance fitness is -0.476 ± 0.074.

As for F52I, the abundance fitness was -0.53 ± 0.19.

For the variant F52D, the abundance fitness is -0.996 ± 0.21.

Consider D62W, for which the abundance fitness was -0.609 ± 0.13.

For the variant D62T, the abundance fitness was -0.423 ± 0.1.

As to D62Q, the abundance fitness was -0.037 ± 0.11.

With F50D, the abundance fitness was -1.06 ± 0.48.

Take T53P: the abundance fitness was -1.03 ± 0.22.

In the case of I10N, the abundance fitness was -0.745 ± 0.29.

Consider I10S, for which the abundance fitness was -0.977 ± 0.15.

Regarding H5V, the abundance fitness was -0.147 ± 0.057.

With H5A, the abundance fitness was -0.276 ± 0.08.

As for H5W, the abundance fitness is -0.381 ± 0.071.

Regarding L23H, the abundance fitness was -0.698 ± 0.34.

Take L23Y: the abundance fitness was -0.586 ± 0.31.

With R37T, the abundance fitness is -0.182 ± 0.075.

For R37V, the abundance fitness was -0.148 ± 0.042.

For A7G, the abundance fitness was -0.152 ± 0.044.

As for A7N, the abundance fitness was 0.002 ± 0.13.

On to L65T, for which the abundance fitness was -0.343 ± 0.096.

Regarding W58F, the abundance fitness stood at 0.105 ± 0.11.

With W58R, the abundance fitness amounted to 0.234 ± 0.037.

In the case of Q4M, the abundance fitness was -0.161 ± 0.079.

With Q4L, the abundance fitness is -0.352 ± 0.059.

With E17R, the abundance fitness is -0.642 ± 0.07.

With E17Y, the abundance fitness was -0.61 ± 0.17.

Consider L9W, for which the abundance fitness was -0.811 ± 0.11.

Take L9S: the abundance fitness is -0.938 ± 0.15.

Regarding L9C, the abundance fitness was -0.558 ± 0.075.

As to L79V, the abundance fitness is -0.775 ± 0.15.

On to L79W, for which the abundance fitness was -1.06 ± 0.22.

Turning to L79S, the abundance fitness is -0.914 ± 0.14.

For the variant A8P, the abundance fitness was -0.945 ± 0.16.

With A8W, the abundance fitness is -0.776 ± 0.11.

For the variant M46C, the abundance fitness was -1.02 ± 0.27.

A67I: the abundance fitness is -0.372 ± 0.19.

Take A67T: the abundance fitness was -0.452 ± 0.12.

For L28E, the abundance fitness is -0.817 ± 0.12.

Regarding L28P, the abundance fitness is -0.878 ± 0.14.

L28D: the abundance fitness was -0.935 ± 0.21.

L28R: the abundance fitness was -0.871 ± 0.084.

On to V16A, for which the abundance fitness is -0.794 ± 0.1.

T14R: the abundance fitness is -0.209 ± 0.053.

As to T14W, the abundance fitness was -0.864 ± 0.16.

As to T14D, the abundance fitness was -0.058 ± 0.098.

As to T14M, the abundance fitness was -0.607 ± 0.19.

As for T14G, the abundance fitness is -0.265 ± 0.058.

Consider S51K, for which the abundance fitness was -0.96 ± 0.16.

On to S51G, for which the abundance fitness is -0.587 ± 0.057.

As to S51M, the abundance fitness was -0.321 ± 0.11.

Turning to A35T, the abundance fitness is -0.348 ± 0.074.

Regarding A35E, the abundance fitness is -0.064 ± 0.061.

As for A35P, the abundance fitness was -0.664 ± 0.12.

For the variant L49D, the abundance fitness is -0.914 ± 0.23.

As to R12L, the abundance fitness is -0.948 ± 0.13.

As for R12G, the abundance fitness is -0.17 ± 0.034.

As for R12Y, the abundance fitness was -0.484 ± 0.13.

With N42E, the abundance fitness was -0.337 ± 0.085.

Consider N42K, for which the abundance fitness was -0.74 ± 0.24.

Regarding Y33F, the abundance fitness is -0.277 ± 0.11.

In the case of L20R, the abundance fitness was -0.917 ± 0.095.

With K26L, the abundance fitness is -0.438 ± 0.052.

For K26C, the abundance fitness is -0.262 ± 0.094.

Regarding Y74N, the abundance fitness worked out at 0.139 ± 0.11.

In the case of Y74M, the abundance fitness is -0.103 ± 0.072.

On to V36Y, for which the abundance fitness is -0.973 ± 0.25.

V36S: the abundance fitness is -0.334 ± 0.064.

On to W18G, for which the abundance fitness was determined as 0.169 ± 0.047.

As to W18S, the abundance fitness came out at 0.163 ± 0.045.

Take W18I: the abundance fitness was determined as 0.061 ± 0.12.

Regarding L75S, the abundance fitness is -0.669 ± 0.089.

With L64C, the abundance fitness was -0.481 ± 0.15.

Regarding L64I, the abundance fitness was -0.192 ± 0.15.

Take L64M: the abundance fitness worked out at 0.163 ± 0.075.

Consider A11R, for which the abundance fitness is -0.038 ± 0.45.

As for Q72R, the abundance fitness was -0.691 ± 0.071.

For R6G, the abundance fitness was -0.501 ± 0.057.

In the case of G25I, the abundance fitness is -0.543 ± 0.22.

As for R69E, the abundance fitness was -0.29 ± 0.13.

For R69A, the abundance fitness was -0.54 ± 0.094.

Take R69L: the abundance fitness was -0.502 ± 0.071.

In the case of R69H, the abundance fitness is -0.517 ± 0.21.

With R69D, the abundance fitness is -0.859 ± 0.4.

As to C60T, the abundance fitness was found to be 0.009 ± 0.051.

Consider Q32F, for which the abundance fitness is -0.829 ± 0.27.

In the case of Q32Y, the abundance fitness is -0.891 ± 0.14.

Turning to Q32G, the abundance fitness is -0.725 ± 0.07.

In the case of Q32V, the abundance fitness is -0.862 ± 0.11.

In the case of K45T, the abundance fitness is -0.764 ± 0.13.

Regarding K45M, the abundance fitness is -0.34 ± 0.13.

For the variant K45H, the abundance fitness was -1.06 ± 0.48.

As for A55G, the abundance fitness worked out at 0.082 ± 0.049.

As to A55F, the abundance fitness is -0.36 ± 0.32.

A55N: the abundance fitness was 0.181 ± 0.22.

Regarding A55Y, the abundance fitness was -0.077 ± 0.21.

As for D78C, the abundance fitness is -0.124 ± 0.11.

In the case of D78A, the abundance fitness was -0.286 ± 0.085.

With D78T, the abundance fitness was -0.34 ± 0.083.

On to T41M, for which the abundance fitness is -0.701 ± 0.13.

As for T41F, the abundance fitness is -1.2 ± 0.31.

With Q66E, the abundance fitness is -0.148 ± 0.079.

Take D3E: the abundance fitness was -0.387 ± 0.097.

For the variant D3L, the abundance fitness was -0.881 ± 0.14.

Take D3G: the abundance fitness was -0.805 ± 0.088.

Take D3Q: the abundance fitness was -0.929 ± 0.19.

For D3T, the abundance fitness was -0.907 ± 0.25.

In the case of E77Y, the abundance fitness was -0.491 ± 0.14.

Consider E70D, for which the abundance fitness was -0.152 ± 0.12.

With E70I, the abundance fitness is -0.468 ± 0.18.

Turning to E70L, the abundance fitness is -0.467 ± 0.074.

E70M: the abundance fitness is -0.46 ± 0.11.

E70C: the abundance fitness is -0.202 ± 0.084.

In the case of E80P, the abundance fitness was -0.467 ± 0.1.

As to E80K, the abundance fitness was -0.751 ± 0.21.

With E80C, the abundance fitness is -0.347 ± 0.079.

On to V27A, for which the abundance fitness is -0.21 ± 0.049.

Consider R47Y, for which the abundance fitness was -0.872 ± 0.31.

Consider R47L, for which the abundance fitness is -0.319 ± 0.052.

Take R47D: the abundance fitness is -0.517 ± 0.16.

For the variant F1L, the abundance fitness was -0.809 ± 0.2.

For the variant F1M, the abundance fitness was -0.661 ± 0.27.

For the variant F1Y, the abundance fitness was -1 ± 0.43.

Regarding Q34H, the abundance fitness came to 0.05 ± 0.095.

Turning to Q34W, the abundance fitness was -0.123 ± 0.073.

Take Q34V: the abundance fitness was -0.417 ± 0.059.

For the variant N57M, the abundance fitness is -0.399 ± 0.087.

For the variant V76R, the abundance fitness is -0.92 ± 0.13.

As for V76D, the abundance fitness is -0.312 ± 0.12.

For V76F, the abundance fitness is -0.637 ± 0.21.
